Laboratory results as given in the supplement of paper PMC12042874.
± gives the uncertainty stated by the source.

Assay: amyloid nucleation score (Sup35N fusion, yeast selection) (log enrichment); library NNK2; higher = more nucleation; inactive = no reads after selection
Procedure, shortened: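 Peptides of 20 random codons fused to Sup35N were expressed in psi-negative yeast, induced 24 hours with 100 μM copper sulfate, then grown 7 days at 30°C on medium lacking adenine and uracil. Input and output plasmid inserts were Illumina-sequenced. Nucleation score is the DiMSum log enrichment of output over input reads, centred on the mode score of non-aggregating sequences, excluding sequences with under 100 input reads. Random libraries had three technical output replicates.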

| Substance | amyloid nucleation score |
| --- | --- |
| YLIAELFQIVDACLWLSSWR | -0.328 ± 0.38 |
| NCQRVWYCWVALSLCETCID | 5.168 ± 0.047 |
| MSMYDAAIEFLLRCGYVRSY | 0.328 ± 0.34 |
| SCLMIIPFVFMFEHYTFEEG | 7.71 ± 0.082 |
| VITVTPGGHVPWVLASNGNI | -1.53 ± 0.78 |
| IVVRL | 0.639 ± 0.41 |
| FDVKGRISLNRYSINFNARL | 5.11 ± 0.073 |
| SISIACCA | 6.991 ± 0.031 |
| MINYCREIQFRM | 3.63 ± 0.12 |
| IDSYLNTSKASRVPCDLRAL | 0.67 ± 0.81 |
| TMRHQNASWLGVYINSSRKY | 3.72 ± 0.078 |
| ENERNML | -0.11 ± 0.29 |
| CTLRGGYISWVQVYE | 2.1 ± 0.1 |
| WSCYKNWG | -1.13 ± 0.5 |
| NEIFGTVIC | -1.12 ± 1 |
| SSTYIERGLSHGKDRT | 0.731 ± 0.46 |
| RRRVDSLIFYIKMRVLFNMF | inactive |
| VIVKAVVDIIGSN | 0.147 ± 0.76 |
| FRTQCHRAMDRASCRVLVRP | inactive |
| SYGLLKYGI | -0.891 ± 0.35 |
| RPASKTMEDGCGLI | inactive |
| AIRGRLKLVDMRHVIPKLKR | 1.21 ± 0.33 |
| IVCLAVSLSSDRTE | 6.599 ± 0.04 |
| VMAILCTNARQLEDSLRQVE | 0.452 ± 0.43 |
| AEGSDGCLKLNGAITIGHMI | inactive |

| Substance | amyloid nucleation score |
| --- | --- |
| PIGRSCIYHKWE | 1.98 ± 0.18 |
| SLGNQIQVCISLPSMPVTPW | 0.512 ± 0.66 |
| ICVRERNRSYRMPFMMFVVR | -0.017 ± 1 |
| WMSVG | -0.081 ± 1.1 |
| AGILLYHPQNMHDSPLQMTR | 3.71 ± 0.099 |
| TDNHFVTRCTYVAFQLTYKV | -0.375 ± 1.1 |
| KFYIPSDLVLVRCPST | -0.883 ± 1.1 |
| RQAKPICCHMVLLDSWPKSM | 0.164 ± 0.35 |
| DSGFGSW | -0.807 ± 0.74 |
| IVYFGQVIIFMVMSNSVCSL | -1.38 ± 1 |
| FQCDVSCSVYKSWEMFQGIT | 0.164 ± 0.8 |
| DARSDVF | inactive |
| VFSDWVSSKPLRSVVPCFCN | -0.496 ± 1.1 |
| TGDCRT | 0.233 ± 0.2 |
| AHIVGMSSSWRLKRYISIES | 0.768 ± 0.43 |
| AGCGIPALTYNNRRAKTHAQ | 0.901 ± 0.53 |
| KHSEDSYCFMSGLSGVICCK | 0.932 ± 0.19 |
| FQSDIKVIIMSTCTISGGRY | 1.33 ± 0.25 |
| GLEFFLGYGYIAARHWVSGS | 1.59 ± 0.13 |
| FLTLPVSPSTQFISDRGSAL | 2.64 ± 0.13 |
| IEGQGLIVCNGDCTGRPNLR | 1.69 ± 0.39 |
| FKSVSRSVALLRYPCLPKFS | -0.47 ± 0.74 |
| RVMEYEILLIFCI | 0.135 ± 0.65 |
| LYYAVQFLKIRTLLPECSLQ | 0.16 ± 0.43 |
| SAVFLLRLCTQIKCMTVR | inactive |

| Substance | amyloid nucleation score |
| --- | --- |
| WTHVHTRKDSLLSTGNCVPI | inactive |
| CVGGVSNCMRYGKTFRDESY | -0.438 ± 0.27 |
| CIGLHC | -0.196 ± 1 |
| VIIRSFR | -0.629 ± 0.34 |
| PEILMSDGIRKLCSVYVFLR | inactive |
| LFRVMILC | -0.239 ± 0.42 |
| TTSKISSSKSLEARHTSHLP | 0.985 ± 0.27 |
| FFYYMRSIT | -1.9 ± 0.78 |
| YFLSSFVSNWWAQYVYW | inactive |
| YYLICST | 0.023 ± 0.47 |
| GMLFRWCG | 7.56 ± 0.047 |
| FYRGSQVMPR | -0.647 ± 1.1 |
| RSFIGDNYISLRC | -0.184 ± 0.29 |
| MIQHICELLG | -0.317 ± 0.32 |
| HSGFADFGRMEMIRDPTGRD | 1.96 ± 0.15 |
| TFFLITDTSVMEEM | 0.072 ± 0.79 |
| RCNIWCHFPVCRAINIMLQA | -0.147 ± 1.1 |
| EFLLYRTSVP | -0.205 ± 0.76 |
| RLRVVEPGNACWGQMLG | 0.165 ± 1 |
| VRSVLVRKGTWARCTRMVAM | 1.05 ± 0.56 |
| LICAL | 0.61 ± 0.39 |
| FGNFLLSITII | 2.4 ± 0.062 |
| KTNHEELKA | inactive |
| CLRFC | -0.453 ± 1.1 |
| FNKDMSNKFNSDKGELSSFM | inactive |

| Substance | amyloid nucleation score |
| --- | --- |
| LCHLVFVVSDWRQRLRVFTV | 4.37 ± 0.05 |
| VFWSGAILLLAKCIGGMSIL | -0.47 ± 0.32 |
| TNSGMWGKLSACFYFVMQYL | -0.936 ± 0.27 |
| GREVHALPHEGMVDRSGRGT | 1.29 ± 0.16 |
| RYYHLCAI | 0.289 ± 0.8 |
| SEFLRKVSFFLFYLFSSGHL | -0.73 ± 0.61 |
| DMCDYQSVGF | inactive |
| TWMSYFVHVSVGFLVYYLYI | -0.919 ± 1 |
| AVIVAIFCSSGYYRHFYTFT | -0.214 ± 1 |
| MGMFKTCVHLNCVYR | 5.229 ± 0.05 |
| FFRNIIYRCMREIKFIEPSE | -0.046 ± 0.63 |
| HQLPVHEPYEYWLQQGSNCP | 0.353 ± 0.56 |
| VNGSIARYGVCFVARCHVIS | 0.246 ± 0.45 |
| FKNTIV | -0.343 ± 0.56 |
| PANGS | -0.249 ± 1 |
| AWMRDLCSVYRCVGCDLLWA | 6.25 ± 0.081 |
| SRNIMLGWVPWYYCWKAPSI | 0.034 ± 0.63 |
| LTIPDFRSGRRRVAQRDLVV | -0.157 ± 0.37 |
| RFERISQAKIARTLGLWEML | 0.878 ± 0.17 |
| YSPLLTLWKIGRIWIAFMIA | 0.148 ± 1 |
| MDGVHFVRYQM | 0.181 ± 0.45 |
| YSNYTHRNSTLGFKQISRTS | 0.063 ± 0.79 |
| VSNGVVMDKCIRKICTVLTM | -0.667 ± 0.45 |
| NLRVAALAEGPRVNYRVSGW | 0.69 ± 0.43 |
| GHRNTDRSRREDRTKW | 4.82 ± 0.05 |

| Substance | amyloid nucleation score |
| --- | --- |
| ALINHWNLVTFS | inactive |
| GFLLCVSGVYLGCLLVNSSI | 0.488 ± 0.56 |
| VCDFIW | -1.48 ± 0.63 |
| FCLLPIDQPVTGIFLVR | -0.158 ± 0.63 |
| RPGHYRTWYFSGFYSSPCQT | 1.49 ± 0.19 |
| LVQGNTFE | 1.19 ± 0.44 |
| VRFLVISINAYSVDVPHISI | -1.63 ± 1.1 |
| MNHTDGQHCFVSWRCLDGWR | 0.705 ± 0.66 |
| PIVLAK | -0.672 ± 0.79 |
| KVIWIRCLFLYMCWAAHG | -0.557 ± 0.78 |
| ACETCPAAEIYLICGTWKSR | 9.36 ± 0.034 |
| SIHDVVYLGPVVVAKDSSVF | inactive |
| AKSNLVDFYTFWSTIECLTM | -0.808 ± 0.48 |
| STRLEVLKLERKIMSSKLFL | 0.699 ± 0.18 |
| RYLNWRVCSNRLPGSEGLWA | 0.323 ± 0.32 |
| MCMLDRRYQTVMSKVWPNLT | 0.224 ± 0.33 |
| YMRDFYRVRNYRRCCVVCPS | -1.59 ± 1.1 |
| NVSSSLPF | -0.424 ± 0.78 |
| PQLHSLCT | -0.214 ± 1 |
| NKKIIYDQIFIRMGSFQLN | inactive |
| VIYIWVSVPITPWESIIRGI | inactive |
| DRQCK | 0.445 ± 0.32 |
| IYRDPHNYCM | -0.751 ± 1.1 |
| ANNICCGASEKYGRWASTID | -0.76 ± 1 |
| CSCHKSSCLRTTFCLEHSSG | 6.866 ± 0.062 |

| Substance | amyloid nucleation score |
| --- | --- |
| NNLHPDYDMGIGYIIDGDPA | -0.34 ± 0.62 |
| PDSGVSDESHLRCLPGVPRI | 0.066 ± 0.28 |
| SVNFSANRRNIDGFERAGPA | -0.476 ± 1.1 |
| TLSSYLVALNQRGAGSLWYV | 0.825 ± 0.8 |
| MFYFRFLKGTSQMIKAAMRS | -0.059 ± 0.49 |
| VGSVK | -0.394 ± 1.1 |
| LMMTSVYLKLGWSFFIFRHR | -0.238 ± 1.1 |
| HLSTSGYVAFLKHLTLCKVL | -0.347 ± 1.1 |
| NSESVICVLQGGFIRACV | -0.551 ± 0.45 |
| AALPFHEVPTGLMITRAFWD | 3.72 ± 0.13 |
| IPGSS | -0.137 ± 0.54 |
| VSNREMYVNR | 0.086 ± 0.74 |
| ISINTICSNVDIGYGVAVFH | 3.92 ± 0.071 |
| YTTYGHTSHLTLYPYTPRMM | 0.123 ± 0.74 |
| AAWIAMCRILKQPTRCGHFL | 6.15 ± 0.073 |
| SLNSGFRDPIYWSVLRRSPS | 6.81 ± 0.086 |
| DSGNDLCDNYPVCWVKFCYC | 5.2 ± 0.063 |
| ISVGGLSHMGTVGSLMKVTQ | -0.023 ± 0.29 |
| RAWHPFDGEYNIVFSHIVLK | -0.525 ± 1.1 |
| WNGYNGRDMCGKLCGVCTLG | 0.219 ± 0.43 |
| SHRPWVWGQNISMKYRSVLK | 3.7 ± 0.057 |
| SLWVASGQSFSDSRQRNVAG | 2.27 ± 0.19 |
| IFDQVNSRYRYAVGYGKW | inactive |
| DFKDEGYQRRV | -0.37 ± 0.65 |
| PAVDRIFSRLCTYSGQFIPQ | 4.66 ± 0.061 |

| Substance | amyloid nucleation score |
| --- | --- |
| FLFAKYGSIIDTSVVDRLAR | 0.979 ± 0.5 |
| ALPPPVKELPWISRFRQWGR | 1.22 ± 0.47 |
| CYISFWARRFDEYLSLLSFA | -0.343 ± 0.42 |
| VVKLMAMFGRTNVLTLERHL | 0.655 ± 0.31 |
| VDMGGDPWMVNRCELSLRLW | 0.881 ± 0.43 |
| LRRSGRSENSRRMTWVWW | 2.75 ± 0.17 |
| GDVCNVLLAYWVFVTLSFSV | 1.5 ± 0.58 |
| RFCWAMYNGFPHK | 4.33 ± 0.059 |
| SSFRVELHRCFVKVFLLLY | -0.266 ± 1 |
| RLYSFCGIN | 1.68 ± 0.093 |
| DWFGLCFMKRFKFGEYKACM | -1.04 ± 0.48 |
| MLGRVKTKVACYG | 0.409 ± 0.64 |
| GGTNYANLMLALWFVVMIST | -0.295 ± 0.44 |
| SVYHLRLI | -0.494 ± 0.42 |
| GDDDVVVDDQNLKCDGYTDL | 1.03 ± 0.24 |
| LHAIHSFDWPTSLIVYHP | inactive |
| MRLFVEFSVVLFYSFFNPFF | inactive |
| MINFHKHGLTI | -0.482 ± 0.35 |
| ACAMFSKRSHSITSVVMGYG | 0.29 ± 0.48 |
| PFSNMLASAFNFILITCSDL | inactive |
| RARPC | inactive |
| APRWWFYVDSY | 0.237 ± 1 |
